In paper PMC10040874 (2023):

Experiments:
[1] = target: Drosophila melanogaster CNNM CBS-pair domain, GST-tagged (D. melanogaster, UniProt A0A0B7P9G0 362-515); test: ITC
[2] = target: M. brevicollis CNNM CBS-pair domain (M. brevicollis); test: ITC
[3] = target: M. brevicollis CNNM CBS-pair domain (M. brevicollis); test: ITC; remark: listed apart in the source
[4] = target: D. rerio CNNM CBS-pair domain (D. rerio); test: ITC
[5] = target: D. rerio CNNM CBS-pair domain (D. rerio); test: ITC; remark: listed apart in the source
[6] = target: T1, CBS-pair domain of a C. elegans CNNM protein (the one of two expressed that bound with 13 μM affinity) (C. elegans); test: ITC; CNNM3
T1 chain: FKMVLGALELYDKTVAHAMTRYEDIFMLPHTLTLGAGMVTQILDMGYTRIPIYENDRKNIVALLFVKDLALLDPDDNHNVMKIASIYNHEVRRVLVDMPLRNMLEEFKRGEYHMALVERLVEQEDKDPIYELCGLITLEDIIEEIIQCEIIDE

[7] = target: T2, CBS-pair domain of a C. elegans CNNM protein (the one of two expressed that bound with 1 μM affinity) (C. elegans); test: ITC; CNNM1
T2 chain: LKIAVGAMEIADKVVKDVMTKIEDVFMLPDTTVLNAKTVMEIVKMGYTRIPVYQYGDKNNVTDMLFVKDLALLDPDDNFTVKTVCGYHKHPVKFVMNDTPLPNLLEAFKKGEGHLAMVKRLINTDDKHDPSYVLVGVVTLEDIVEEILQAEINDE

[8] = target: T2, CBS-pair domain of a C. elegans CNNM …; test: ITC; CNNM1
[9] = target: T3, Toxoplasma gondii CNNM CBS-pair domain (T. gondii); test: ITC
T3 chain: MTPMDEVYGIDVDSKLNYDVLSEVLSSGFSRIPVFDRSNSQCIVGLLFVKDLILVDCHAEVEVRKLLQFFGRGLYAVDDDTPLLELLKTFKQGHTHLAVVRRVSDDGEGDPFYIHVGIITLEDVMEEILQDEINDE

[10] = target: T3, Toxoplasma gondii CNNM CBS-pair domain; test: ITC
[11] = target: T4, human CNNM3 CBS-pair domain (human, UniProt Q8NE01 309-452); test: ITC
T4 sequence (Q8NE01 309-452): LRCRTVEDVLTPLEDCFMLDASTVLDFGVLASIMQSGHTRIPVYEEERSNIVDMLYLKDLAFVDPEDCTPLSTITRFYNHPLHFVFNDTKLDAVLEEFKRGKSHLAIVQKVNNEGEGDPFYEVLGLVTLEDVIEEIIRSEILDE

[12] = target: T4, human CNNM3 CBS-pair domain; test: ITC; remark: listed apart in the source

D. rerio CNNM CBS-pair domain (D. rerio), sequence (chain, as listed by the source): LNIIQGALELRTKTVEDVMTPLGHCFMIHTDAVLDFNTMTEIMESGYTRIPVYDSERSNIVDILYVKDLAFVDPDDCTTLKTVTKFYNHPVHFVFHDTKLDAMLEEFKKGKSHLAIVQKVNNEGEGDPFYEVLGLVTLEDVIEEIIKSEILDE
Drosophila melanogaster CNNM CBS-pair domain, GST-tagged, sequence (A0A0B7P9G0 362-515): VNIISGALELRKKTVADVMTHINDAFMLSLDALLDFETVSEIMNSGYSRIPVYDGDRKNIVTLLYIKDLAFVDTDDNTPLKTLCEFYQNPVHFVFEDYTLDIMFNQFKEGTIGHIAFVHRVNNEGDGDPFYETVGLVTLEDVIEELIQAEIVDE

B1: Drosophila melanogaster PRL (wild-type) (enzyme)
chain: MSITMRQKDLRPAPALIEYKGMKFLITDRPSDITINHYIMELKKNNVNTVVRVCEPSYNTDELETQGITVKDLAFEDGTFPPQQVVDEWFEVLKDKYQQNPEACVAVHCVAGLGRAPVLVALALIELGLKYEAAVEMIRDKRRGAINAKQLSFLEKYKPKARLKHKNGHKNSCSVQ
Ka [1]: 2.84e+06 M⁻¹

B2: M. brevicollis PRL (enzyme)
chain: MARNHISKISHKNMRFLITDRPSDATVEDYVRVLQQENVVALCRVCEPSYDVSKLKDNGIEVHDWAFQDGAPPPDEVIDNWLRLCRETFAQHPNGFVAVHCVAGLGRAPVLVALSLIEAGMSSEDAVLFIREKRHGAINRRQLQFLQDYKRRGKAKG
Ka [2]: 3.24e+06 M⁻¹
Kd [3]: 300 nM

B3: D. rerio PRL (enzyme)
chain: MARMNRPAPVEVCYKNMRFLITHNPTNSTLSSFIEDLKKYGVTTVVRVCEITYDKTPLEKNGITVVDWPFDDGAPPPSKVVEDWLSLLKRRFIEEPGCCVAVHCVAGLGRAPVLVAVALIESGMKYEDAIQFIRQKRRGAINSKQLTYLEKYRPKQRLRYKHPHIFKNK
modifications: Table S2 says CNNM4 only; the choice of cnnm4a over cnnm4b is assumed
Ka [4]: 5.84e+07 M⁻¹
Kd [5]: 17 nM

B4: Caenorhabditis elegans PRL (enzyme)
chain: MSAAVQKRASTNTVAATTYFKPAPSEIAWGKMRFLITDRPNNSSIQSYIEELEKHGARAVVRVCEPTYDTLALKEAGIDVLDWQFSDGSPPPPEVIKSWFQLCMTSFKEHPDKSIAVHCVAGLGRAPVLVAIALIEAGMKYEDAVEMIRTQRRGALNQKQLKFLETYKANGELRRLRGNVDGKQKSCCIQ
modifications: Assigning the 13 uM binder to CNNM3 is inferred from listing order (Figure 4 not in text)
Kd [6]: 970 nM

B5: Caenorhabditis elegans PRL (enzyme)
chain: MSAAVQKRASTNTVAATTYFKPAPSEIAWGKMRFLITDRPNNSSIQSYIEELEKHGARAVVRVCEPTYDTLALKEAGIDVLDWQFSDGSPPPPEVIKSWFQLCMTSFKEHPDKSIAVHCVAGLGRAPVLVAIALIEAGMKYEDAVEMIRTQRRGALNQKQLKFLETYKANGELRRLRGNVDGKQKSCCIQ
modifications: Table S2: only CNNM1 (376-530) and CNNM3 (375-527) gave protein; assigning the 1 uM binder to CNNM1 is inferred from listing order (Figure 4 not in text)
Ka [7]: 76100 M⁻¹
Kd [8]: 13000 nM

B6: Toxoplasma gondii PRL (enzyme)
chain: MNEASSCLSPEEPRSCDNREEGTTRELRSGSHMGKGKLGHSPTTSHSELTREGSSVDCGRRGGNEEKTEEKRSEKAGAERECERKTQRPRFDGDGSSLSPRSNASRGSACSTRSCESHEKVGRTLSGDSTGRDGVCSVSSARQPSLRRKSAAEEVGREVKVDGKALDSQIELVRTKNRGKSEVTRLGRGAGSACAVSVSPLGTARHVPSGRQPSERRQSAKPLTKLSSSSSSHNKTTMVPTVMNTPTRIEAGRQKFLIFDAPSQENLPAYIEEMRAYEVTDLVRTCERTYDDKTVLASGIRPHELIFPDGEAPPDDVIDEWLTLCNAVSQQRGAIAIHCVAGLGRAPVLVAIALIEKGMDPMDAIMFIRERRKGAINRRQLQFLKGYKRRSNYKKCCGGR
Ka [9]: 134000 M⁻¹
Kd [10]: 7400 nM

B7: human PRL2 (enzyme)
chain: MNRPAPVEISYENMRFLITHNPTNATLNKFTEELKKYGVTTLVRVCDATYDKAPVEKEGIHVLDWPFDDGAPPPNQIVDDWLNLLKTKFREEPGCCVAVHCVAGLGRAPVLVALALIECGMKYEDAVQFIRQKRRGAFNSKQLLYLEKYRPKMRLRFRDTNGH
Ka [11]: 3.63e+07 M⁻¹
Kd [12]: 28 nM
